Assays:
Assay in all cases: cell-based or functional assay
[1] = target: MAP2K2 (MEK2) Mitogen-activated protein kinase kinase 2 (UniProt P36507 1-400, limits assumed)
[2] = target: PRKCQ (PKC theta) (UniProt Q04759 1-706, limits assumed)
[3] = target: T1, NEK9 NIMA (never in mitosis gene a)-related kinase 9 (UniProt Q8TD19 1-979, limits assumed)
T1 sequence (looked up): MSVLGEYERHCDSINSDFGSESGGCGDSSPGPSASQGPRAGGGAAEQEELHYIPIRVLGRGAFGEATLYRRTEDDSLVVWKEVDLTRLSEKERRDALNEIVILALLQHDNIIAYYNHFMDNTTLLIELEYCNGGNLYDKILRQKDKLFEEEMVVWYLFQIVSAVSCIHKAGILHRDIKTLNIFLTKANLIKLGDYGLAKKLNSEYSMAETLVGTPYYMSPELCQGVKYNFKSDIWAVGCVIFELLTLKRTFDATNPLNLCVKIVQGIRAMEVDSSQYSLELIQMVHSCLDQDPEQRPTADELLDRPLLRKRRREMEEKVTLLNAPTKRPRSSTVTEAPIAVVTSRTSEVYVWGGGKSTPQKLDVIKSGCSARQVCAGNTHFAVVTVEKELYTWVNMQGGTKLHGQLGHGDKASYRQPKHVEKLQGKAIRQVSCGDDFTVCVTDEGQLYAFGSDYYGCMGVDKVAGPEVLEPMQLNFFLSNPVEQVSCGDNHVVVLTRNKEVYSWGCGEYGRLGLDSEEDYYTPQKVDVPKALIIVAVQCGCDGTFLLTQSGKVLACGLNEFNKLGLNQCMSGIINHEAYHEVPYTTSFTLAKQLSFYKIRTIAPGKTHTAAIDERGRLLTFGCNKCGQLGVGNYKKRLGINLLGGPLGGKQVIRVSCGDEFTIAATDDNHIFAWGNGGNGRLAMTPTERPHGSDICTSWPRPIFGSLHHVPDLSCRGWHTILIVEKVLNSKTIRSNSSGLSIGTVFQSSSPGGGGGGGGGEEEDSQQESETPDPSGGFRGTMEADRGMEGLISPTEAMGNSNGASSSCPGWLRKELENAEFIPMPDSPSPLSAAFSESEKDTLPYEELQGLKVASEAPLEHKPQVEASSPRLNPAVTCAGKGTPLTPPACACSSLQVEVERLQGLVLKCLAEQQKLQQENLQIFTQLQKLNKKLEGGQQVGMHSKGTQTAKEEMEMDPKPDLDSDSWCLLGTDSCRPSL

[4] = target: CLK2 (UniProt P49760 1-499, limits assumed)
[5] = target: T2, TAOK2 (TAO1) TAO kinase 2 (UniProt Q9UL54 1-314, limits assumed)
T2 sequence (looked up): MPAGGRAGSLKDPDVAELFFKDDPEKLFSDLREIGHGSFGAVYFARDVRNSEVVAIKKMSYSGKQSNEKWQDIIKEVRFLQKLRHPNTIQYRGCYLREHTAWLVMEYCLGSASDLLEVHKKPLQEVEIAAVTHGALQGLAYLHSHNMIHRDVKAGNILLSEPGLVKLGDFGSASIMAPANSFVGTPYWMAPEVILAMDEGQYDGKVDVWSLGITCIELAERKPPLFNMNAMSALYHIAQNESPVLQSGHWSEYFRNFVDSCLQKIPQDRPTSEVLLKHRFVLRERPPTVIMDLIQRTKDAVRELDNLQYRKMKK

[6] = target: MAP2K1 (MEK1) (UniProt Q02750 1-393, limits assumed)
[7] = target: T3, CHEK1 (CHK1) CHK1 checkpoint homolog (UniProt O14757 1-476, limits assumed)
T3 sequence (looked up): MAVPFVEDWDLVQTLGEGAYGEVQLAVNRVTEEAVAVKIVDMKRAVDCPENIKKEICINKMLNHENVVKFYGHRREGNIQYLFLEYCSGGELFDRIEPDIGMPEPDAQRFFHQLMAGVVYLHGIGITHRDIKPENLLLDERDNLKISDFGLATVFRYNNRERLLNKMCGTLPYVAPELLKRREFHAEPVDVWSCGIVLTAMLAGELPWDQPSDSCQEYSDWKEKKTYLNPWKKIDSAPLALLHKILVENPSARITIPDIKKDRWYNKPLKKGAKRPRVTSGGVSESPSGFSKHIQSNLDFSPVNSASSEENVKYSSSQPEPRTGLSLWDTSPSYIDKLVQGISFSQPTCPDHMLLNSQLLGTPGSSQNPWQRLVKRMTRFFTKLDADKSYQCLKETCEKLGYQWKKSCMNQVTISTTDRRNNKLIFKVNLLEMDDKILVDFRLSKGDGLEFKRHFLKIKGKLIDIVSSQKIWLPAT

[8] = target: T4, DYRK4 (UniProt Q9NR20 1-520, limits assumed)
T4 sequence (looked up): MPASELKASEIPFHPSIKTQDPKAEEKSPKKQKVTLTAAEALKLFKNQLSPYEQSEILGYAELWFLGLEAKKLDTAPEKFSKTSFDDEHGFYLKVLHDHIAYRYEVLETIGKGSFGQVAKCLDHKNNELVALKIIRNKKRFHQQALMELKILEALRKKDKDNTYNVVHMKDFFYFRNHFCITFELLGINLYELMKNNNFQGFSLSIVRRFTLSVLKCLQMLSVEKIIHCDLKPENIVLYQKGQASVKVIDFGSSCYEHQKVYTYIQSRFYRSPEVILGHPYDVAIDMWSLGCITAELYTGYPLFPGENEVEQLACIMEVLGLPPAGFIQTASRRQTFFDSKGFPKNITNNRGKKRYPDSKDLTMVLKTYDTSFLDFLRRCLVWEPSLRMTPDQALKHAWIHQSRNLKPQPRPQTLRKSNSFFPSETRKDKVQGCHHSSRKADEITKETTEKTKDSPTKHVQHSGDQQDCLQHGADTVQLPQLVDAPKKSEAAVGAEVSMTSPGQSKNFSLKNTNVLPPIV

[9] = target: PIM2 (UniProt Q9P1W9 1-311, limits assumed)
Sequence of PIM2 (Q9P1W9 whole entry): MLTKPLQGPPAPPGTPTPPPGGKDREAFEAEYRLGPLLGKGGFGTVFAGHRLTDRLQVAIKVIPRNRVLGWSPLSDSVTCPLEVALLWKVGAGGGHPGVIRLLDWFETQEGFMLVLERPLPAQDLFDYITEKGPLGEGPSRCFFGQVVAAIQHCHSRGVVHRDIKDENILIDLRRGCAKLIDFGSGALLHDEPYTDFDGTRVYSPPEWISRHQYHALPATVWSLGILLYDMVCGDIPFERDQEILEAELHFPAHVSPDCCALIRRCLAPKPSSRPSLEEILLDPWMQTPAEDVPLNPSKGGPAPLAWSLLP

Sequence of PRKCQ (PKC theta) (Q04759 whole entry): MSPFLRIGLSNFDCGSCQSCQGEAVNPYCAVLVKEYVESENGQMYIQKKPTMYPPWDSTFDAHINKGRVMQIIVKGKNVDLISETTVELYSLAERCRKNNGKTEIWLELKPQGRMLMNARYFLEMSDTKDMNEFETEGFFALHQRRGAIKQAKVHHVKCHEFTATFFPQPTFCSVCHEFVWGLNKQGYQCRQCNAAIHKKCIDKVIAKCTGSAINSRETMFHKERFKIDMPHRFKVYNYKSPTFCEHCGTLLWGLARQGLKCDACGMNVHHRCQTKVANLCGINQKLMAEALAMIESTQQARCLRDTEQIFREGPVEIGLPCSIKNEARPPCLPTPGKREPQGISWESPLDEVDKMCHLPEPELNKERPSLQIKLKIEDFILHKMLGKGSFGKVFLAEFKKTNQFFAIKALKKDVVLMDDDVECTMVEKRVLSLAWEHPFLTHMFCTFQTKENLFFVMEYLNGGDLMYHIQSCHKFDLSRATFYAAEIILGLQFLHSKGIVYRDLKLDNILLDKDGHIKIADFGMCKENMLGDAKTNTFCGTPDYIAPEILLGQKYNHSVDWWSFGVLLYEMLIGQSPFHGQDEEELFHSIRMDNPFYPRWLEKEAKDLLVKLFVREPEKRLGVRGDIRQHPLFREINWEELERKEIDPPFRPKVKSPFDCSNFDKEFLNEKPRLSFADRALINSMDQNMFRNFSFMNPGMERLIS
Sequence of CLK2 (P49760 whole entry): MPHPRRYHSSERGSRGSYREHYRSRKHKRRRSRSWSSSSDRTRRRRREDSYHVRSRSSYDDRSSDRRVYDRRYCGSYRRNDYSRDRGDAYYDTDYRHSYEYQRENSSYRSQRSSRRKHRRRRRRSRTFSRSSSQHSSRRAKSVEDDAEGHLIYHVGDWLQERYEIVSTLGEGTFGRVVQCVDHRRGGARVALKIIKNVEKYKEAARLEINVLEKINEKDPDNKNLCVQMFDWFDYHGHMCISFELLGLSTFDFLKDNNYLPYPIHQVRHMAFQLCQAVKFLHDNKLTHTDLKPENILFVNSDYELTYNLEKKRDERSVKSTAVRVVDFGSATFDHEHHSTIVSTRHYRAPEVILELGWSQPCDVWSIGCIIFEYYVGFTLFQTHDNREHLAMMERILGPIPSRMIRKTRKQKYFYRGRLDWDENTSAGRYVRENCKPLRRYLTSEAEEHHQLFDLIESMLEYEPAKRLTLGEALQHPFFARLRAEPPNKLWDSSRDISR

## SGRPPMIVWFNRPFLIAVSHTHGQTILFMAKVINPVGA [D3 peptide]
[1]
  % Inhibition mean: 105%
[2]
  % Inhibition mean: 86.3%
[3]
  % Inhibition mean: 108%
[4]
  % Inhibition mean: 65.9%
[5]
  % Inhibition mean: 100%
[6]
  % Inhibition mean: 94%
[7]
  % Inhibition mean: 74%
[8]
  % Inhibition mean: 61.2%
[9]
  % Inhibition mean: 89.9%

— US20100184658A1 (published 2010)
